Source: PMC8867190, “Ultrasensitive DNA‐Biomacromolecule Sensor for the Detection Application of Clinical Cancer Samples”

What was measured:
[1] = molecular target: Neutrophil gelatinase-associated lipocalin (NGAL) (UniProt P80188 21-198); experiment: electrochemical strand displacement (SWV); 100 nM NGAL; signal gain 200.85%; 10 mM phosphate buffer, 1 M NaCl, pH 7.4, room temperature; 30 nM aptamer/signal duplex (prepared in 20 mM Tris, 50 mM MgCl2, pH 8.0, diluted 60 uL into 1940 uL PBS); details: protein: commercial; assayed prehybridized with NGAL-SP S7 (3'-MB), displaced by target; printed S7 only partly complementary
Sequence of Neutrophil gelatinase-associated lipocalin (NGAL) (P80188 21-198): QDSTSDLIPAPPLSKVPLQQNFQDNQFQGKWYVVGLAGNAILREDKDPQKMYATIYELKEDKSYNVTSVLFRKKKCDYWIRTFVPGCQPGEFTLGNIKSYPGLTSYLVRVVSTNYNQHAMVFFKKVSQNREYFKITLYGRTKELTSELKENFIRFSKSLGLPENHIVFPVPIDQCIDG

Nucleolin (NCL) = Nucleolin (NCL) (UniProt P19338 2-710); experiment: electrochemical strand displacement (SWV); 100 nM NCL; signal gain 357.19%; 10 mM phosphate buffer, 1 M NaCl, pH 7.4, room temperature; 30 nM aptamer/signal duplex (prepared in 20 mM Tris, 50 mM MgCl2, pH 8.0, diluted 60 uL into 1940 uL PBS); details: protein: commercial; assayed prehybridized with NCL-SP S10 (3'-MB), displaced by target; printed S10 only partly complementary
Sequence of Nucleolin (NCL) (P19338 2-710): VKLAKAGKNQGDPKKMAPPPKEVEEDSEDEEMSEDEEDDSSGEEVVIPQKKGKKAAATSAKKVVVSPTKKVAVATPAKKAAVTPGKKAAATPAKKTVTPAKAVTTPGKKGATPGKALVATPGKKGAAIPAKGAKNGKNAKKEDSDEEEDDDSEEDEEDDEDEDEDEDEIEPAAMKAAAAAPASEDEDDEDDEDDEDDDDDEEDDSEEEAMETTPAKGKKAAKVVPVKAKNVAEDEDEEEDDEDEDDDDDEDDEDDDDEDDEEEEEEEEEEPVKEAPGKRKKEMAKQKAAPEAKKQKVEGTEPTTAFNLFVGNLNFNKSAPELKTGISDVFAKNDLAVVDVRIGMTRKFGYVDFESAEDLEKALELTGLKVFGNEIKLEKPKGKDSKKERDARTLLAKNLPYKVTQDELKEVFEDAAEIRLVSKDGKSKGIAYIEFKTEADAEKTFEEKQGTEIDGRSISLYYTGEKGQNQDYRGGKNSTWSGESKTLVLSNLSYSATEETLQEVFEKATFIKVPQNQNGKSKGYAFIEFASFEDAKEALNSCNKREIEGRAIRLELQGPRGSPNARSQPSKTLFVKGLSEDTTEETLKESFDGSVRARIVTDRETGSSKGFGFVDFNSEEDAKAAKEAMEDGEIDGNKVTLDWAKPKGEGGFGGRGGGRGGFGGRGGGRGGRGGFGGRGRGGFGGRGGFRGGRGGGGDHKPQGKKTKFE

Luteinizing hormone (LH) = Luteinizing hormone (LH) (UniProt P01215;P01229 25-116;21-141); experiment: electrochemical strand displacement (SWV); 10 pM-10 uM LH; detection limit 10 pM (not a Kd); displaces signal probe; 10 mM phosphate buffer, 1 M NaCl, pH 7.4, room temperature; 30 nM aptamer/signal duplex (prepared in 20 mM Tris, 50 mM MgCl2, pH 8.0, diluted 60 uL into 1940 uL PBS); details: protein: commercial; copies: 1;1; assayed prehybridized 1:1 with signal probe S3 (3'-MB), complementary to aptamer nt 1-15; S3 is displaced by target; G-quadruplex predicted
Sequence of Luteinizing hormone (LH) (P01215 25-116, chain 1 of 2): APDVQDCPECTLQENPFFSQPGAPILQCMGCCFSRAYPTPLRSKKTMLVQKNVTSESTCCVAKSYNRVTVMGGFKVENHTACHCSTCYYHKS
Sequence of Luteinizing hormone (LH) (P01229 21-141, chain 2 of 2): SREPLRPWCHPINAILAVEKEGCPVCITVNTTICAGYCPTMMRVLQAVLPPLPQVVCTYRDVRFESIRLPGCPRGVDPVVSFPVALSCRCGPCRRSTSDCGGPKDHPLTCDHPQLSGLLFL

B1: NGAL aptamer (ssDNA)
DNA: AGCAGCACAGAGGTCAGATGGCGCTGGATAGCAAGATCACGTTATCATCGTAAACCCTATGCGTGCTACCGTGAA
binding result [1]: binds

GGTGGTGGTGGTTGTGGTGGTGGTGGTTTTTT (ssDNA) [Nucleolin aptamer]
binding result (Nucleolin (NCL)): binds

TATGGTATGCTGTGTGGTATGGGGTGGCGTGCTCT (structured_DNA) [LH aptamer]
binding result (Luteinizing hormone (LH)): binds
